Experimental data taken from patent US20040038369A1, “Airway-specific trypsin-like enzymes and method of using the same” (priority 2000, published 2004).

Key:
Type in all cases: cell-based
BEAS-2B = assay: Calcium influx in airway epithelial cell strain BEAS-2B; settings: AST 2 units/mL; trypsin 10 to 100 units/mL; SFLLRNamide 100 μM
Description: The Ca^2+ influx due to the AST was examined with respect to an airway epithelial cell strain BEAS-2B. The confluent cells adhered to six 10 cm dishes were used. The cells were peeled with a 10 mM EDTA/HEPES-Tyrode buffer solution for 10 minutes, recovered by a centrifugal treatment at 1,500 rpm at room temperature for 5 minutes, and then resuspended in 10 mL of HEPES-Tyrode buffer solution-Ca^2+ (−) pH 7.4. The recovered cells (about 1.1×10^7 cells) were suspended in 11 mL of HEPES-Tyrode buffer solution (1 μg/mL, containing Fura2-AM) to load the Fura2-AM at 37° C. for 30 minutes. The cells were recovered by a centrifugal treatment at 1,500 rpm at room temperature for 5 minutes, twice washed with HEPES-Tyrode buffer solution-Ca^2+ (−) pH 7.4, and then resuspended in 11 mL of HEPES-Tyrode buffer solution-Ca^2+ (−) pH 7.4. The cell suspension was mixed with […] of 1M CaCl2 to give a final concentration of 1 mM CaCl2, and then incubated in a shaded state at room temperature for 5 minutes. The prepared Fura2-AM-loaded infected cells were dispensed into a 96 well plate in a volume of 100 μL/well, further subjected to the dispensation of HEPES-Tyrode buffer solution-Ca^2+ (+) pH 7.4 in a volume of 80 μL/well, and then assayed with Fluorescence Drug Screening System (Hamamatsu Photonics Co.). […]

PAR-2 = target: T1, PAR-2 (Homo sapiens, UniProt P55085); assay: Calcium influx in PAR-2-expressing insect cells; settings: AST 2 units/mL; trypsin, thrombin 0.1 to 10 units/mL; SFLLRNamide, SLIGRL 10 to 100 μM
T1 construct: expressed in transfected cells; host or cells: Sf9 insect cells infected with recombinant baculovirus VL-PAR (pVL1393)
T1 sequence (P55085 26-397): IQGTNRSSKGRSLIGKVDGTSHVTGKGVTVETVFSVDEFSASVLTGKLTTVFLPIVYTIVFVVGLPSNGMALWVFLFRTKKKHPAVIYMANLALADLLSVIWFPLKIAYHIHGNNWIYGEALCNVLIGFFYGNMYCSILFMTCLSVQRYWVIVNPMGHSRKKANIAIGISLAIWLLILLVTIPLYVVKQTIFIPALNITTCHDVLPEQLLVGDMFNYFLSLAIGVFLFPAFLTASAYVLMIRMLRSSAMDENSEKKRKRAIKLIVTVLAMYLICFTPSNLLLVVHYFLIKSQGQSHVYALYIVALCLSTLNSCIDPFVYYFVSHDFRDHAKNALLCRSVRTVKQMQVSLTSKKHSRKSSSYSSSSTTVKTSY
Description: (§1) The above-obtained recombinant baculovirus VL-PAR for expressing the PAR was used to infect 1.0×10^7 Sf9 cells sowed on a 75 cm^2 flask at an MOI=2, and was then left and stationally cultured at 27° C. for 40 hours. After the culture, the infected cells were recovered and then subjected to a calcium influx experiment to-confirm the function of the PAR.
(§2) The recovered infected cells (about 5×10^6 cells) were once washed with HEPES-Tyrode buffer solution-Ca^2+ (−) pH 7.4, and then suspended in 5 mL of HEPES-Tyrode buffer solution (containing Fura2-AM, 1 μg/mL) to load the Fura2-AM on the cells at 27° C. for 30 minutes. The suspension was centrifuged at 800 rpm at room temperature for 5 minutes to recover the cells. The cells were twice washed with HEPES-Tyrode buffer solution-Ca^2+ (−) pH 7.4 and then resuspended in 5 mL of HEPES-Tyrode buffer solution-Ca^2+ (−) pH 7.4. The cell suspension was mixed with 5 μL of 1M CaCl2 to give a final concentration of 1 mM CaCl2, and then incubated in a shaded state at room temperature for 5 minutes. The prepared Fura2-AM-loaded infected cells were dispensed into a 96 well plate in a volume of 100 μL/well, further subjected to the dispensation of HEPES-Tyrode buffer solution-C^2+ (+) pH 7.4 in a volume of 80 μL/well, and then assayed with a Fluorescence Drug Screening System (made by Hamamatsu Photonics Co.). […]

[1] = test system: normal human airway epithelial cells; assay: Calcium influx in normal human airway epithelial cells; settings: AST 2 units/mL; trypsin 10 to 100 units/mL; SFLLRNamide 100 μM
Description: The Ca^2+ influx due to the AST was examined with confluent normal epithelial cells adhered to three 10 cm dishes (purchased from BioWhittaker Corp.). The cells were peeled with a 10 mM EDTA/HEPES-Tyrode buffer solution for 10 minutes, recovered by a centrifugal treatment at 800 rpm at room temperature for 5 minutes, and then resuspended in 5 mL of HEPES-Tyrode buffer solution-Ca^2+ (−) pH 7.4. The recovered cells (about 1.2×10^6 cells) were suspended in 5 mL of HEPES-Tyrode buffer solution (1 μg/mL, containing Fura2-AM) to load the Fura2-AM to the cells at 37° C. for one hour. The cells were recovered by a centrifugal treatment at 800 rpm at room temperature for 5 minutes, twice washed with HEPES-Tyrode buffer solution-Ca^2+ (−) pH 7.4, and then resuspended in […] of HEPES-Tyrode buffer solution-Ca^2+ (−) pH 7.4. The cell suspension was mixed with 5 μL of 1M CaCl2 to give a final concentration of 1 mM CaCl2, and then incubated in a shaded state at room temperature for 5 minutes. The prepared Fura2-AM-loaded infected cells were dispensed into a 96 well plate in a volume of 100 μL/well, further subjected to the dispensation of HEPES-Tyrode buffer solution-Ca^2+ (+) pH 7.4 in a volume of 80 μL/well, and then assayed with Fluorescence Drug Screening System (Hamamatsu Photonics Co.). […]

PAR-1 = target: T2, PAR-1 (Homo sapiens, UniProt P25116); assay: Calcium influx in PAR-1-expressing insect cells; settings: AST 2 units/mL; trypsin, thrombin 0.1 to 10 units/mL; SFLLRNamide 10 to 100 μM
T2 construct: expressed in transfected cells; host or cells: Sf9 insect cells infected with recombinant baculovirus VL-PAR (pVL1393)
T2 sequence (P25116 22-425): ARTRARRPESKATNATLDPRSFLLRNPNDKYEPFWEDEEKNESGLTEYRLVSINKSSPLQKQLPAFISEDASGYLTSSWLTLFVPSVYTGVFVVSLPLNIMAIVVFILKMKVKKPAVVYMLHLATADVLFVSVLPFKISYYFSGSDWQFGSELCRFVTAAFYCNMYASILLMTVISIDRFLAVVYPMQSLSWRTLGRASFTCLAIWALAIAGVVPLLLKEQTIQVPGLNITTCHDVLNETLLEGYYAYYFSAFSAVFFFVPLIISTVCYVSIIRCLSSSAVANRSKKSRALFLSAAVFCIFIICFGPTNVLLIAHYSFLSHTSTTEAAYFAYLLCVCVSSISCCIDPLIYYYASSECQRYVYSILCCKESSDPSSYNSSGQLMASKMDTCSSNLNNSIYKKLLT
Description: The recovered infected cells (about 5×10^6 cells) were once washed with HEPES-Tyrode buffer solution-Ca^2+ (−) pH 7.4, and then suspended in 5 mL of HEPES-Tyrode buffer solution (containing Fura2-AM, 1 μg/mL) to load the Fura2-AM on the cells at 27° C. for 30 minutes. The suspension was centrifuged at 800 rpm at room temperature for 5 minutes to recover the cells. The cells were twice washed with HEPES-Tyrode buffer solution-Ca^2+ (−) pH 7.4 and then resuspended in 5 mL of HEPES-Tyrode buffer solution-Ca^2+ (−) pH 7.4. The cell suspension was mixed with 5 μL of 1M CaCl2 to give a final concentration of 1 mM CaCl2, and then incubated in a shaded state at room temperature for 5 minutes. The prepared Fura2-AM-loaded infected cells were dispensed into a 96 well plate in a volume of 100 μL/well, further subjected to the dispensation of HEPES-Tyrode buffer solution-C^2+ (+) pH 7.4 in a volume of 80 μL/well, and then assayed with a Fluorescence Drug Screening System (made by Hamamatsu Photonics Co.). Namely, [intensity of 500 nm fluorescent light due to 340 nm exciting light]/[intensity of 500 nm fluorescent light due to 380 nm exciting light] (reflecting the concentration of calcium in the cells) was assayed.

PAR-4 = target: T3, PAR-4 (Homo sapiens, UniProt Q96RI0); assay: Calcium influx in PAR-4-expressing insect cells; settings: AST 2 units/ml; trypsin, thrombin 0.1 to 10 units/mL
T3 construct: expressed in transfected cells; host or cells: Sf9 insect cells infected with recombinant baculovirus VL-PAR (pVL1393)
T3 sequence (Q96RI0 18-385): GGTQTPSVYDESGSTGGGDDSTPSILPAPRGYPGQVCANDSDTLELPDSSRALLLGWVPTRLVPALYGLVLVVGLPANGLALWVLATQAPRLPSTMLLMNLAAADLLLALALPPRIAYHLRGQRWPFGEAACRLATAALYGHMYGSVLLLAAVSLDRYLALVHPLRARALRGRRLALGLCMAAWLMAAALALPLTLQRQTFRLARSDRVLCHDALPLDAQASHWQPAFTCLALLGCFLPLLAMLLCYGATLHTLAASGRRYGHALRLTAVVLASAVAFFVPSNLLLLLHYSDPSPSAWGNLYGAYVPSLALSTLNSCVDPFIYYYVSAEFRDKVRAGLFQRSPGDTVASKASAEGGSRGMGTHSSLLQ
Description: as §1, §2

Measured: Ca2+ influx

B1: trypsin: trypsin originated from bovine pancreas (protein)
chain: IVGGYTCGANTVPYQVSLNSGYHFCGGSLINSQWVVSAAHCYKSGIQVRLGEDNINVVEGNEQFISASKSIVHPSYNSNTLNNDIMLIKLKSAASLNSRVASISLPTSCASAGTQCLISGWGNTKSSGTSYPDVLKCLKAPILSDSSCKSAYPGQITSNMFCAGYLEGGKDSCQGDSGGPVVCSGKLQGIVSWGSGCAQKNKPGVYTKVCNYVSWIKQTIASN
observed: BEAS-2B | PAR-2 | [1] | PAR-1 | PAR-4
